{"source": "patent US20100092954A1", "about": "“Method for Determining the Genetic Basis for Physiological Changes in Organisms” (priority 2006, published 2010)", "molecules": {"B1": {"name": "WT: wild-type E. coli MG1655 glycerol kinase (GlpK) (protein, UniProt P0A6F3 2-502, looked up)", "Glycerol kinase": "TEKKYIVALDQGTTSSRAVVMDHDANIISVSQREFEQIYPKPGWVEHDPMEIWATQSSTLVEVLAKADISSDQIAAIGITNQRETTIVWEKETGKPIYNAIVWQCRRTAEICEHLKRDGLEDYIRSNTGLVIDPYFSGTKVKWILDHVEGSRERARRGELLFGTVDTWLIWKMTQGRVHVTDYTNASRTMLFNIHTLDWDDKMLEVLDIPREMLPEVRRSSEVYGQTNIGGKGGTRIPISGIAGDQQAALFGQLCVKEGMAKNTYGTGCFMLMNTGEKAVKSENGLLTTIACGPTGEVNYALEGAVFMAGASIQWLRDEMKLINDAYDSEYFATKVQNTNGVYVVPAFTGLGAPYWDPYARGAIFGLTRGVNANHIIRATLESIAYQTRDVLEAMQADSGIRLHALRVDGGAVANNFLMQFQSDILGTRVERPEVREVTALGAAYLAGLAVGFWQNLDELQEKAVIEREFRPGIETTERNYRYAGWKKAVKRAMAWEEHDE"}}, "system": "glycerol kinase (glpK)", "assay": "Biochemical measurements of mutant glycerol kinase (partially purified protein): reaction rate and inhibition by FBP", "set-up": "species or system Escherichia coli", "settings": "partially purified protein from cells expressing the enzyme", "text": "All clones had mutations in the gene for glycerol kinase (glpK), which catalyzes the first step in glycerol catabolism. This protein is subject to inhibition by fructose-1,6-bisphosphate (FBP) and phosphorylated enzyme IIA^Glc. […] Since all glycerol-adapted populations have mutations in glpK, rapid growth on glycerol can be partially attributed to altered kinetic and regulatory properties of glycerol kinase. Evidently the rate of glycerol phosphorylation catalyzed by GlpK is rate-limiting to the growth of WT E. coli MG 1655. The glycerol catabolic pathway generates the glycolytic intermediate dihydroxyacetone phosphate, which can be converted to methylglyoxal, a toxic metabolite when present at high concentrations. It is noteworthy that no mutations were detected in any genes relating to methylglyoxal metabolism.", "data": [{"molecule": "B1", "values": [{"measurement": "Vmax", "result": 15.8, "unit": "μmol glycerol/min/mg"}]}]}
